Experimental data reported in PMC9687920, “Effects of Boric Acid and Storage Temperature on the Analysis of Microalbumin Using Aptasensor-Based Fluorescent Detection”.

Target: human serum albumin (HSA) (Homo sapiens, UniProt P02768 25-609)
Test: graphene oxide fluorescence recovery (competition with GO quencher); PBS; PBS or PBS with 2% (w/v) boric acid, ambient temperature, 5 mg/L GO stock, 30 min with HSA in the dark; pH not given
Details: protein: commercial; label: 5'-Cy5

human serum albumin (HSA), sequence (P02768 25-609): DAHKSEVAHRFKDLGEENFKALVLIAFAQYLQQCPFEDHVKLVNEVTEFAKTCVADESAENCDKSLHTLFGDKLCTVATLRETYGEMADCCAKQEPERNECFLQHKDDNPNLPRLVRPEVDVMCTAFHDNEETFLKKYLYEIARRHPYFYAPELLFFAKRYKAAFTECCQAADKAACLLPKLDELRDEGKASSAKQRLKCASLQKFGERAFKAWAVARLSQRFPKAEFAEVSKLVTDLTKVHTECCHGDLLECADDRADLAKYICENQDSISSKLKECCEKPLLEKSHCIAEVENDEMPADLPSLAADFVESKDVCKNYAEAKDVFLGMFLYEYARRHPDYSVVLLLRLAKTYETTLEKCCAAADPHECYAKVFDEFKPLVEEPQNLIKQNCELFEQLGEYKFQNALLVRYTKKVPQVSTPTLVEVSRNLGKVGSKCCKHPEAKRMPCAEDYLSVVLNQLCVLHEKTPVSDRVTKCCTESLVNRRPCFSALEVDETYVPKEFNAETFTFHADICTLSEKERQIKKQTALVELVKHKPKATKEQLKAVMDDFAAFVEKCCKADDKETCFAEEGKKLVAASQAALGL

B1: H8 aptamer (ssDNA)
DNA: ATACCAGCTTATTCAATTCCCCCGGCTTTGGTTTAGAGGTAGTTGCTCATTACTTGTACGCTCCGGATGAGATAGTAAGTGCAATCT
binding result: binds
